We go through two molecules from US6140490, “High affinity nucleic acid ligands of complement system proteins” (NeXstar Pharmaceuticals, Inc.).

Broadly, the Kd is a measure of binding affinity in units of concentration. A low value points to tighter binding.

In data set [1] the target is Complement C1q (Homo sapiens, UniProt P02745;P02746;P02747 P02745:23-245,P02746:28-253,P02747:29-245). Description: filter; MgPBS, 37 C; still binds C1q on immune complexes; competed by SAP, beta-amyloid, CRP and A-chain 14-26 peptide. The following applies: tags: Quidel; chain copies: 6; label: 32P. How it is done:
Individual cloned DNA was T7 transcribed with α-[^32P]-ATP and the full length [^32P]-2'-NH_2-RNA or 2'-F-RNA was gel-purified (as above). RNA was suspended at approximately 5,000 cpm per 30 µl sample (<10 pM), and aliquots were incubated with various concentrations of C1q, C3 or C5 in MgPBS for 10 minutes at 37° C. Samples were then filtered through nitrocellulose, the filters washed with buffer and dried under an infrared lamp, and counted with addition of scintillation fluid (Ecoscint A, National Diagnostics, Atlanta, Ga.). A background sample of RNA alone was run in parallel. […] Filters were washed and counted.
RNA ligand binding to C1q was also measured in the presence of immune-complexes, which would block the binding of ligands to C1q head-groups. Immune complexes (IC) were formed by mixing 620 µg BSA at equivalence with 1 ml of rabbit anti-BSA (Sigma, St. Louis, Mo.) plus PEG 8000 added to 1% final concentration, and then the samples were incubated overnight at 4° C. The IC were pelleted by microfugation at 12,000 rpm for 10 minutes, washed five times with PBS, and suspended in 1 ml of MgPBS. […] Samples were incubated for 30 minutes at room temperature, microfuged, and the pellets and supernatants counted.

For data set [2], the target named is Complement C5 (Homo sapiens, UniProt P01031;P01031 P01031:19-673,P01031:678-1676). The experiment in a line: minimal structure from boundary analysis; called 38mer in text. The following applies: tags: Quidel. Here is the method:
A secondary structure for an inhibitory C5 Nucleic Acid Ligand as determined by current art (Green et al. (1995) Chem & Biol. 2:683) is shown in FIG. 3 (SEQ ID NO:75). The smallest structure which would bind C5 is determined by: a) radiolabeling the C5 Nucleic Acid Ligand at both the 3' and the 5' end; b) treating the labeled Nucleic Acid Ligand by partial base-hydrolyzed to split a portion of the bonds between nucleotides; c) incubating the partially hydrolyzed Nucleic Acid Ligand with C5 protein and then eluting the bound Nucleic Acid Ligand; and d) analyzing the eluted Nucleic Acid Ligand on gels. In this procedure, the Nucleic Acid Ligand initially binds to C5 as bases are removed from the Nucleic Acid Ligand. When an essential base is removed, the Nucleic Acid Ligand is no longer able to bind. This first essential base determines the boundary of the minimal Nucleic Acid Ligand structure. For a human C5 Nucleic Acid Ligand the smallest binding structure is believed to comprise the sequence with proposed base-pairing pattern shown in FIG. 3.

Sequence of Complement C1q (P02745 23-245, chain 1 of 3): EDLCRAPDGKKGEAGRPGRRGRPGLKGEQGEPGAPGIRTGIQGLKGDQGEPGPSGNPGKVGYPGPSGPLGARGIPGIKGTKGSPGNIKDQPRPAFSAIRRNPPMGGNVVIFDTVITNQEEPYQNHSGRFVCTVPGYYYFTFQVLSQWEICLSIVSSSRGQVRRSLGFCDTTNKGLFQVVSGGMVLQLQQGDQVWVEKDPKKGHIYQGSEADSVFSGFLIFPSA
Sequence of Complement C1q (P02746 28-253, chain 2 of 3): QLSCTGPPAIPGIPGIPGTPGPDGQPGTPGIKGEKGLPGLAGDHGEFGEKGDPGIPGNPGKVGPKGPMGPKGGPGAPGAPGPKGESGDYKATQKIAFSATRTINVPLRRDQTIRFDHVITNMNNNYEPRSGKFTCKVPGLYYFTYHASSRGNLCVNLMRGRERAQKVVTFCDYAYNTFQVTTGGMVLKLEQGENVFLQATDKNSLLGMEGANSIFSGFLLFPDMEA
Sequence of Complement C1q (P02747 29-245, chain 3 of 3): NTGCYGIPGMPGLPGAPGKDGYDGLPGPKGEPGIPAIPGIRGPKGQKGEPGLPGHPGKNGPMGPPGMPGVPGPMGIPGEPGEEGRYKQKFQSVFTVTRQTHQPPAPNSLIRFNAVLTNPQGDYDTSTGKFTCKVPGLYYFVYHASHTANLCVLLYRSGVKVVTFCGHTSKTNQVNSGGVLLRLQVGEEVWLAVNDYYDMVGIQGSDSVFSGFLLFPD
Sequence of Complement C5 (P01031 19-673, chain 1 of 2): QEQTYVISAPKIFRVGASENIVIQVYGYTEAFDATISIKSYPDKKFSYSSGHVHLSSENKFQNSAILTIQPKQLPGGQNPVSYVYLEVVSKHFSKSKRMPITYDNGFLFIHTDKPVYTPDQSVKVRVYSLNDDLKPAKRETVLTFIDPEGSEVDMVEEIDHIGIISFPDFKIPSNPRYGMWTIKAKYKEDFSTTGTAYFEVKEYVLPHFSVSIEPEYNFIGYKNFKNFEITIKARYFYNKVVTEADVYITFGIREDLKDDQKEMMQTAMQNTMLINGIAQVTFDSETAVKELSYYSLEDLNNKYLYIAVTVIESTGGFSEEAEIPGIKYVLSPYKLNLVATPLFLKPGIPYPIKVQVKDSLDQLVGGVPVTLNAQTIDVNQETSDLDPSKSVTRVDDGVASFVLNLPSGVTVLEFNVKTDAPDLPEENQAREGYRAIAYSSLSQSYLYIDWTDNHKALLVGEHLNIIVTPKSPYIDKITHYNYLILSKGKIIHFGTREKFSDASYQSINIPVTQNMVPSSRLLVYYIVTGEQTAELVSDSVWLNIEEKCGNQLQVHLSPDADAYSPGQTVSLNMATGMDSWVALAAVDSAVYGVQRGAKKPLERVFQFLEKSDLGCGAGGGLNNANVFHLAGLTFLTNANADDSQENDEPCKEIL
Sequence of Complement C5 (P01031 678-1676, chain 2 of 2): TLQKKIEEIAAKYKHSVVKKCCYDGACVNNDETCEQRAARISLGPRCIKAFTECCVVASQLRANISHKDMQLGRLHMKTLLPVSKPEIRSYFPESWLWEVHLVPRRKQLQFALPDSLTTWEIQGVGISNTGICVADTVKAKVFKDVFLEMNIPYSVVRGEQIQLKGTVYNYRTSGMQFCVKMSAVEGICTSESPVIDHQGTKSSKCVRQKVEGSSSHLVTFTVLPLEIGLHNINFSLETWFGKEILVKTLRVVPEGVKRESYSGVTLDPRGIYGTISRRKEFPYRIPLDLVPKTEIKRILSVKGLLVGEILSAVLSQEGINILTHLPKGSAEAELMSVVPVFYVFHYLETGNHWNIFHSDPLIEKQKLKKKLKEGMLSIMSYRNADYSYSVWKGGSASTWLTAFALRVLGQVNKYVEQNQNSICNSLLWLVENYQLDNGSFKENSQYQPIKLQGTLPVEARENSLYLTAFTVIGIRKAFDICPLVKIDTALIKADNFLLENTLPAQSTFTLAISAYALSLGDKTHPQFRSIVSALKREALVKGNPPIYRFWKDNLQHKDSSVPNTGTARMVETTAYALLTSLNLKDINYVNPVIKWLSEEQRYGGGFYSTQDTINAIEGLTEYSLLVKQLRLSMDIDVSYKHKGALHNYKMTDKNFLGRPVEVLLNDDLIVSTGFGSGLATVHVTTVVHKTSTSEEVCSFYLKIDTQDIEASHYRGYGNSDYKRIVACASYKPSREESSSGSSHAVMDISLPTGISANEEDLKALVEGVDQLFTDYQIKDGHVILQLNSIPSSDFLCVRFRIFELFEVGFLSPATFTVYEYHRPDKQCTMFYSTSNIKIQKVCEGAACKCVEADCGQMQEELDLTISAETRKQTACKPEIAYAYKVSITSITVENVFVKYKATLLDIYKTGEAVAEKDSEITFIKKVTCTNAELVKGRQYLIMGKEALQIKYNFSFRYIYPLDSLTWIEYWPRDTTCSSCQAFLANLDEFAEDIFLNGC

B1: clone 50 (ssRNA)
RNA: GGGAGGACGAUGCGGGUGGAGUGGAGGUAUAACGGCCGGUAGCGCAUCCCACUCGGGUCUGCGGUAGACGACUCGCCCGA
modifications: 2'-NH2 C and U
Take B1: in data set [1], the Kd was 0.979 nM.

B2: truncated C5 ligand (FIG. 3) (ssRNA)
RNA: GACGAUGCGGUCUCAUGCGUCGAGUGUGAGUUUACCUUCGUC
modifications: 2'-F C and U
For B2, the binding result in data set [2] is “binds”.
